{"source": "FireProtDB (doi:10.1002/pro.164)", "proteins": {"B1": {"name": "wild type, Q6T418 (protein)", "chain": "MERKTFSFLFLLLLVLASDVAVERGEARTCMIKKEGWGKCLIDTTCAHSCKNRGYIGGNCKGMTRTCYCLVNC"}}, "conditions": "Vigna radiata; pH 7; 37 °C; GdnHCl; Fluorescence; Tris-HCl 10 mM; NaCl 100 mM; whole UniProt chain shown"}
{"protein": "B1", "values": [{"measurement": "denaturant midpoint (higher = more stable)", "result": 4.17, "unit": "M"}]}
